Several values for one entry are separate records, joined by “and”; a condition that tells them apart may be missing. Equal entries are not always repeated.
Settings: Saccharomyces cerevisiae (strain ATCC 204508 / S288c), pH 5, CD, Sodium acetate buffer, reversible: yes

Chain of Cytochrome c isoform 1 wild type, P00044 (P00044 whole entry, canonical isoform): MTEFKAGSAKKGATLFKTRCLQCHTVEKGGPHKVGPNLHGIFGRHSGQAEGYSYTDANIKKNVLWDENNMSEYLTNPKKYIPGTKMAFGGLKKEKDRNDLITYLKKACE

In the case of “Cytochrome c isoform 1 wild type, P00044”, the denaturant m value (5 °C, GdnHCl) is reported as 5.4 kcal/mol/M, the “denaturant midpoint (higher = more stable)” value (5 °C, GdnHCl) is reported as 1.4 M and the unfolding free energy (5 °C, GdnHCl) is reported as 7.8 kcal/mol. The “unfolding enthalpy (calorimetric)” value (Thermal) was 91.8 kcal/mol and 42.8 kcal/mol.
